# Assay results published in the Immune Epitope Database (IEDB).
# pIC50, pKd: −log10 of the molar value.
# Legend:
# [1] = target: HLA-A*02:01; experiment: IEDB peptide-MHC binding, purified MHC/direct/fluorescence; filed as Kd, often an IC50 or EC50 that approximates it; ≥ and ≤ were set here for values at or beyond the usual limits of such assays
# [2] = target: HLA-A*02:12; experiment: as above
# [3] = target: HLA-A*02:16; experiment: as above
# [4] = target: HLA-A*02:19; experiment: as above
# [5] = target: HLA-A*03:01; experiment: as above
# [6] = target: HLA-A*24:03; experiment: as above
# [7] = target: HLA-A*29:02; experiment: as above
# [8] = target: HLA-A*68:02; experiment: as above
# [9] = target: HLA-A*26:01; experiment: IEDB peptide-MHC binding, purified MHC/competitive/fluorescence; filed as Kd, often an IC50 or EC50 that approximates it; ≥ and ≤ were set here for values at or beyond the usual limits of such assays
# [10] = target: HLA-A*69:01; experiment: as above
# [11] = target: HLA-B*15:01; experiment: as above
# [12] = target: HLA-B*18:01; experiment: as above
# [13] = target: HLA-B*27:03; experiment: as above
# [14] = target: HLA-B*39:01; experiment: as above
# [15] = target: HLA-B*46:01; experiment: as above
# [16] = target: HLA-B*51:01; experiment: as above
# [17] = target: HLA-B*57:01; experiment: as above
# [18] = target: HLA-A*02:01; experiment: IEDB peptide-MHC binding, purified MHC/competitive/fluorescence; ≥ and ≤ were set here for values at or beyond the usual limits of such assays; details: source organism: Zaire ebolavirus
# [19] = target: HLA-A*11:01; experiment: as above
# [20] = target: HLA-A*24:02; experiment: as above; details: source organism: Zaire ebolavirus
# [21] = target: HLA-B*15:01; experiment: as above; details: source organism: Zaire ebolavirus
# [22] = target: HLA-A*02:03; experiment: IEDB peptide-MHC binding, purified MHC/direct/fluorescence; filed as Kd, often an IC50 or EC50 that approximates it; ≥ and ≤ were set here for values at or beyond the usual limits of such assays
# [23] = target: HLA-A*02:11; experiment: as above
# [24] = target: HLA-A*11:01; experiment: as above
# [25] = target: HLA-A*02:01; experiment: IEDB peptide-MHC binding, purified MHC/competitive/fluorescence; filed as Kd, often an IC50 or EC50 that approximates it; ≥ and ≤ were set here for values at or beyond the usual limits of such assays
# [26] = target: HLA-B*15:17; experiment: as above
# [27] = target: HLA-B*40:01; experiment: IEDB peptide-MHC binding, purified MHC/direct/fluorescence; filed as Kd, often an IC50 or EC50 that approximates it; ≥ and ≤ were set here for values at or beyond the usual limits of such assays; details: source organism: Itapua hantavirus
# [28] = target: HLA-A*31:01; experiment: IEDB peptide-MHC binding, purified MHC/competitive/fluorescence; filed as Kd, often an IC50 or EC50 that approximates it; ≥ and ≤ were set here for values at or beyond the usual limits of such assays
# [29] = target: HLA-A*68:02; experiment: as above; details: source organism: Salmonella enterica subsp. enterica serovar Typhi
# [30] = target: HLA-B*15:17; experiment: IEDB peptide-MHC binding, purified MHC/direct/fluorescence; filed as Kd, often an IC50 or EC50 that approximates it; ≥ and ≤ were set here for values at or beyond the usual limits of such assays
# [31] = target: HLA-B*57:01; experiment: as above
# [32] = target: HLA-B*58:01; experiment: as above
# [33] = target: HLA-A*69:01; experiment: as above; details: source organism: Amur virus
# [34] = target: HLA-A*01:01; experiment: as above; details: source organism: Reston ebolavirus - Reston
# [35] = target: HLA-A*31:01; experiment: as above; details: source organism: Reston ebolavirus - Reston
# [36] = target: HLA-B*08:01; experiment: as above; details: source organism: Reston ebolavirus - Reston
# [37] = target: HLA-B*15:01; experiment: as above; details: source organism: Reston ebolavirus - Reston
# [38] = target: HLA-B*18:01; experiment: as above; details: source organism: Reston ebolavirus - Reston
# [39] = target: HLA-B*27:05; experiment: as above; details: source organism: Reston ebolavirus - Reston
# [40] = target: HLA-B*44:02; experiment: as above; details: source organism: Reston ebolavirus - Reston
# [41] = target: HLA-B*46:01; experiment: as above; details: source organism: Reston ebolavirus - Reston
# [42] = target: HLA-B*48:01; experiment: as above; details: source organism: Reston ebolavirus - Reston
# [43] = source organism: Salmonella enterica subsp. enterica serovar Typhimurium str. LT2
# [44] = source organism: Entamoeba histolytica HM-1:IMSS
# [45] = source organism: Entamoeba dispar SAW760
# [46] = source organism: Four Corners hantavirus
# [47] = source organism: Bacillus anthracis
# [48] = source organism: Rickettsia sibirica
# [49] = source organism: West Nile virus
# [50] = source organism: Reston ebolavirus - Reston
# [51] = source organism: Reston ebolavirus - Reston (1989)
# [52] = source organism: Yersinia pestis Antiqua
sequence,measurement,setting,value
FTGEYLLRL,pKd,[1]; source organism: Salmonella enterica subsp. enterica serovar Typhimurium,6.64
same,pKd,[2]; [43],5.98
same,pKd,[3]; [43],≤ 4.70
same,pKd,[4]; [43],≤ 4.70
same,pKd,[5]; [43],≤ 4.70
same,pKd,[6]; [43],≤ 4.70
same,pKd,[7]; [43],≤ 4.70
same,pKd,[8]; [43],≤ 4.70
same,pKd,[9]; source organism: Homo sapiens,≤ 4.70
same,pKd,[10]; source organism: Homo sapiens,≤ 4.70
same,pKd,[11]; source organism: Homo sapiens,≤ 4.70
same,pKd,[12]; source organism: Homo sapiens,≤ 4.70
same,pKd,[13]; source organism: Homo sapiens,≤ 4.70
same,pKd,[14]; source organism: Homo sapiens,≤ 4.70
same,pKd,[15]; source organism: Homo sapiens,≤ 4.70
same,pKd,[16]; source organism: Homo sapiens,≤ 4.70
same,pKd,[17]; source organism: Homo sapiens,≤ 4.70
YQGDYKLFL,pIC50,[18],6.22
same,pIC50,[19]; source organism: Zaire ebolavirus,4.22
same,pIC50,[20],6.04
same,pIC50,[21],4.97
STYQFSLMQ,pKd,[22]; [44],≤ 4.70
same,pKd,[23]; [44],≤ 4.70
same,pKd,[2]; [44],≤ 4.70
same,pKd,[4]; [44],≤ 4.70
same,pKd,[5]; [44],≤ 4.70
same,pKd,[24]; [44],≤ 4.70
same,pKd,[8]; [44],≤ 4.70
same,pKd,[25]; [45],≤ 4.70
same,pKd,[9]; [45],≤ 4.70
same,pKd,[10]; [45],≤ 4.70
same,pKd,[26]; [45],≤ 4.70
same,pKd,[12]; [45],≤ 4.70
same,pKd,[13]; [45],≤ 4.70
same,pKd,[14]; [45],≤ 4.70
same,pKd,[15]; [45],≤ 4.70
same,pKd,[16]; [45],≤ 4.70
same,pKd,[17]; [45],≤ 4.70
PELGAFFAI,pKd,[22]; source organism: Choclo virus,≤ 4.70
same,pKd,[23]; source organism: Choclo virus,≤ 4.70
same,pKd,[2]; source organism: Choclo virus,≤ 4.70
same,pKd,[3]; source organism: Choclo virus,≤ 4.70
same,pKd,[4]; source organism: Choclo virus,≤ 4.70
same,pKd,[5]; source organism: Choclo virus,≤ 4.70
same,pKd,[6]; source organism: Choclo virus,≤ 4.70
same,pKd,[7]; source organism: Choclo virus,≤ 4.70
same,pKd,[8]; source organism: Choclo virus,≤ 4.70
same,pKd,[27],6.97
same,pKd,[25]; [46],≤ 4.70
same,pKd,[9]; [46],≤ 4.70
same,pKd,[10]; [46],≤ 4.70
same,pKd,[11]; [46],≤ 4.70
same,pKd,[26]; [46],≤ 4.70
same,pKd,[12]; [46],≤ 4.70
same,pKd,[13]; [46],≤ 4.70
same,pKd,[14]; [46],≤ 4.70
same,pKd,[15]; [46],≤ 4.70
same,pKd,[16]; [46],≤ 4.70
same,pKd,[17]; [46],≤ 4.70
GTLTKGVFK,pKd,[5]; [47],7.26
same,pKd,[24]; [47],7.92
same,pKd,[28]; source organism: Bacillus anthracis str. A0488,7.81
WVVDQNGRV,pKd,[29],7.75
ASWMALGVY,pKd,[30]; [48],7.62
same,pKd,[31]; source organism: Rickettsia sibirica 246,≤ 4.70
same,pKd,[32]; [48],5.88
GSRAIWFMW,pKd,[30]; [49],7.20
same,pKd,[31]; [49],7.42
VSAAGTTLR,pKd,[5]; source organism: Mycobacterium tuberculosis,≤ 4.70
same,pKd,[28]; source organism: Mycobacterium tuberculosis H37Rv,6.46
AAGIAWIPY,pIC50,[19]; source organism: Sudan ebolavirus,4.53
KTWGKNLVF,pKd,[30]; source organism: Yellow fever virus 1899/81,8.77
TLTRGQNTV,pKd,[1]; source organism: Amur virus,7.40
same,pKd,[23]; source organism: Amur virus,≤ 4.70
same,pKd,[2]; source organism: Amur virus,7.24
same,pKd,[4]; source organism: Amur virus,6.86
same,pKd,[33],≤ 4.70
RTHLGFIFQ,pKd,[5]; [47],≤ 4.70
same,pKd,[24]; [47],≤ 4.70
same,pKd,[28]; source organism: Bacillus thuringiensis str. Al Hakam,≤ 4.70
QLSLRMLSL,pKd,[34],≤ 4.70
same,pKd,[5]; [50],≤ 4.70
same,pKd,[24]; [50],≤ 4.70
same,pKd,[7]; [50],≤ 4.70
same,pKd,[35],≤ 4.70
same,pKd,[36],6.07
same,pKd,[37],≤ 4.70
same,pKd,[38],≤ 4.70
same,pKd,[39],≤ 4.70
same,pKd,[40],≤ 4.70
same,pKd,[41],≤ 4.70
same,pKd,[42],≤ 4.70
same,pKd,[31]; [50],≤ 4.70
same,pKd,[32]; [50],≤ 4.70
same,pKd,[25]; [51],≤ 4.70
same,pKd,[9]; [51],≤ 4.70
same,pKd,[10]; [51],≤ 4.70
same,pKd,[13]; [51],≤ 4.70
same,pKd,[14]; [51],≤ 4.70
KVCRSPAQK,pKd,[5]; [52],5.74
same,pKd,[24]; [52],6.94
same,pKd,[28]; source organism: Yersinia pestis Nepal516,5.78
